Nine molecules from publication PMC4273445 (eLife, 2014) can be followed below.

Changes are numbered by the printed parent chain. “And” between values parts separate entries of the source, which are not always exact repeats. Equal entries are not always repeated.

A word on the Kd: it is the free concentration of one partner at which half of the binding sites on the other are occupied at equilibrium, for simple one-to-one binding.

Sequences and labels used below:
B1: fHbp V2.21 Gln (at V1 Lys191) to Ala (natural protein)
chain: MGPDSDRLQQRRVAADIGAGLADALTAPLDHKDKSLQSLTLDQSVRKNEKLKLAAQGAEKTYGNGDSLNTGKLKNDKVSRFDFIRQIEVDGQLITLESGEFQIYKQDHSAVVALQIEKINNPDKIDSLINARSFLVSGLGGEHTAFNQLPSGKAEYHGKAFSSDDPNGRLHYSIDFTKKQGYGRIEHLKTPEQNVELASAELKADEKSHAVILGDTRYGSEEKGTYHLALFGDRAQEIAGSATVKIREKVHEIGIAGKQLEHHHHHH
B2: CFHR3_(12), the first two CCP domains of CFHR3 (domain or fragment)
chain: KPCDFPDIKHGGLFHENMRRPYFPVAVGKYYSYYCDEHFETPSGSYWDYIHCTQNGWSPAVPCLRKCYFPYLENGYNQNYGRKFVQGNSTEVACHPGYGLPKAQTTVTCTEKGWSPTPRCIR
B3: complement factor-H related 3 (CFHR3), full length, recombinant His-tagged, Q02985 19-330 (natural protein)
chain: QVKPCDFPDIKHGGLFHENMRRPYFPVAVGKYYSYYCDEHFETPSGSYWDYIHCTQNGWSPAVPCLRKCYFPYLENGYNQNYGRKFVQGNSTEVACHPGYGLPKAQTTVTCTEKGWSPTPRCIRVRTCSKSDIEIENGFISESSSIYILNKEIQYKCKPGYATADGNSSGSITCLQNGWSAQPICINSSEKCGPPPPISNGDTTSFLLKVYVPQSRVEYQCQPYYELQGSNYVTCSNGEWSEPPRCIHPCIITEENMNKNNIKLKGRSDRKYYAKTGDTIEFMCKLGYNANTSILSFQAVCREGIVEYPRCE
B4: CFHR3_(12), the first two (N-terminal) CCP domains of complement factor H-related 3, Q02985 19-330 (domain or fragment)
chain: B3 chain
B5: complement factor-H related 3 (CFHR3), full length, recombinant His-tagged (natural protein)
chain: B3 chain
B6: fHbp V3.28 Val (at V1 Val272) to Ala (natural protein)
chain: VAADIGTGLADALTAPLDHKDKGLKSLTLEDSIPQNGTLTLSAQGAEKTFKAGDKDNSLNTGKLKNDKISRFDFVQKIEVDGQTITLASGEFQIYKQNHSAVVALQIEKINNPDKTDSLINQRSFLVSGLGGEHTAFNQLPGGKAEYHGKAFSSDDPNGRLHYSIDFTKKQGYGRIEHLKTLEQNVELAAAELKADEKSHAAILGDTRYGSEEKGTYHLALFGDRAQEIAGSATVKIGEKVHEIGIAGKQ
B7: CFH67, CCP domains 6 and 7 of complement factor H (domain or fragment)
chain: TLKPCDYPDIKHGGLYHENMRRPYFPVAVGKYYSYYCDEHFETPSGSYWDHIHCTQDGWSPAVPCLRKCYFPYLENGYNQNYGRKFVQGKSIDVACHPGYALPKAQTTVTCMENGWSPTPRCI
notes: source: prepared as previously described (Prosser et al., 2007)
B8: fHbp V2.21 Val (at V1 Val272) to Ala (natural protein)
chain: VAADIGAGLADALTAPLDHKDKSLQSLTLDQSVRKNEKLKLAAQGAEKTYGNGDSLNTGKLKNDKVSRFDFIRQIEVDGQLITLESGEFQIYKQDHSAVVALQIEKINNPDKIDSLINQRSFLVSGLGGEHTAFNQLPSGKAEYHGKAFSSDDPNGRLHYSIDFTKKQGYGRIEHLKTPEQNVELASAELKADEKSHAAILGDTRYGSEEKGTYHLALFGDRAQEIAGSATVKIREKVHEIGIAGKQ

In experiment [1] the target is fHbp V1.1, recombinant His-tagged (Neisseria meningitidis) (UniProt Q9JXV4). The experiment is described as follows: SPR. (In general: Surface plasmon resonance follows binding to a sensor surface in real time, without labels.)
The target in experiment [2] is T1, CFHR3_(12), the first two (N-terminal) CCP domains of complement factor H-related 3 (human, UniProt Q02985 19-330).
T1 construct: also called CFHR12
T1 sequence: B3 chain
The experiment is described as follows: SPR. Conditions: both partners purified.

Experiment [3] concerns the target B7. As to the kind of experiment: SPR. Conditions: both partners purified.
The target of experiment [4] is T2, factor H binding protein (fHbp) V3.28, recombinant His-tagged (Neisseria meningitidis, UniProt E6MV22 20-274).
T2 chain: B6 chain with A202V
As to the kind of experiment: SPR.

Experiment [5] has as its target factor H binding protein (fHbp) V3.28, recombinant His-tagged (Neisseria meningitidis), E6MV22. As to the kind of experiment: MST.
The target of experiment [6] is factor H binding protein (fHbp) V3.28 (N. meningitidis), E6MV22. As to the kind of experiment: SPR.
The target of experiment [7] is T2, factor H binding protein (fHbp) V3.28, …. The experiment is described as follows: MST.
For experiment [8], the target named is T1, CFHR3_(12), the first two (N-terminal) …. The experiment is described as follows: SPR. The following applies: both partners purified. The source holds these as a separate data set.
For experiment [9], the target named is B7. As to the kind of experiment: SPR. Conditions: both partners purified. The source holds these as a separate data set.
In experiment [10] the target is T3, factor H binding protein (fHbp) V1.1 (N. meningitidis, UniProt Q9JXV4 20-274).
T3 construct: fHbp variant 1.1; source: recombinant, as in Johnson et al., 2012
T3 sequence: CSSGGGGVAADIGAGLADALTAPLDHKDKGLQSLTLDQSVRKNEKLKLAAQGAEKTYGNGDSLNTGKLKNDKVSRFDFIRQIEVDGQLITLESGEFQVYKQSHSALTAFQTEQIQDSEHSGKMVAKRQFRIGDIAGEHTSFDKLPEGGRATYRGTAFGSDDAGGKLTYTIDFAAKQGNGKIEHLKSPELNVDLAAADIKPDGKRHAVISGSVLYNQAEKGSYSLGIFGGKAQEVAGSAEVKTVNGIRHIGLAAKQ
As to the kind of experiment: SPR. The following applies: both partners purified.

The target of experiment [11] is factor H binding protein (fHbp) V3.28 (N. meningitidis, UniProt E6MV22 20-274). The experiment is described as follows: SPR. The following applies: both partners purified.

“CFHR3_(12), the first two CCP domains of CFHR3 (domain or fragment)”: the specificity for CFH over CFHR3 (fold) in [1] is 20 fold.

Regarding B1, the values for the Kd in [2] and in experiment [3] were 2.85 nM and 3.02 nM, respectively.

Turning to B2, in experiment [4], the Kd is 4 nM.

Consider B3, for which the Kd in experiment [5] is 3 nM.

B4: the equilibrium dissociation constant (Kd) in experiment [6] was 4.08 nM and 4 nM and 4.25 nM.

Regarding B5, the Kd in [7] was 9 nM.

With B6, the Kd in experiment [8] was 42 nM; in experiment [9], 25.3 nM.

Turning to B7, the Kd in [10] was 3.56 nM; in experiment [11] it was 2.74 nM and 2.46 nM and 3.17 nM.

B8 gave an equilibrium dissociation constant (Kd) in experiment [2] of 63.5 nM.
